According to paper PMC3605159, “Twist1 Controls a Cell-Specification Switch Governing Cell Fate Decisions within the Cardiac Neural Crest” (PLoS Genetics, 2013):
Numbering of substitutions follows the chain as printed. Numbers in names are those of the source.

T1: Sox10 (rat, UniProt O55170 1-466)
T1 sequence (looked up): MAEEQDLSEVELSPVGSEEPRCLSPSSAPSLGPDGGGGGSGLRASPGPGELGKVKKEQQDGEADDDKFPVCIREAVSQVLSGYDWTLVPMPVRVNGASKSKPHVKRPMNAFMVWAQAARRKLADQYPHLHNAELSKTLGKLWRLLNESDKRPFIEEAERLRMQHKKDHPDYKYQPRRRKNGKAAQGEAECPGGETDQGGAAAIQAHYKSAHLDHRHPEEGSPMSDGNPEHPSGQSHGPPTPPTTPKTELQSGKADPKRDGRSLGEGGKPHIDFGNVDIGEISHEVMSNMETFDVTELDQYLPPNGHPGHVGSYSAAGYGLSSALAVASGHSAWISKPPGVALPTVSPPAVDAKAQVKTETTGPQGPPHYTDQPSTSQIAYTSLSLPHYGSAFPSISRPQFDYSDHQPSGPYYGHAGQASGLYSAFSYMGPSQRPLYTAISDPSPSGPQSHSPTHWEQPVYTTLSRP

B1: Twist1 (natural protein, UniProt P26687 1-206, looked up)
chain: MMQDVSSSPVSPADDSLSNSEEEPDRQQPASGKRGARKRRSSRRSAGGSAGPGGATGGGIGGGDEPGSPAQGKRGKKSAGGGGGGGAGGGGGGGGGSSSGGGSPQSYEELQTQRVMANVRERQRTQSLNEAFAALRKIIPTLPSDKLSKIQTLKLAARYIDFLYQVLQSDELDSKMASCSYVAHERLSYAFSVWRMEGAWSMSASH
B2: Twist1 S192P (natural protein, UniProt P26687 1-206, looked up)
chain: B1 chain with S192P

Molecular target: T1, Sox10
Experiment: cell-based or functional assay

| Binder | luciferase transactivation of the Phox2b promoter by Sox10 in HeLa cells with Twist1 co-expressed (Sox10 alone 48.9+/−2.2-fold) [fold] | luciferase transactivation of the Phox2b promoter by Sox10 in HeLa cells with Twist1 S192P co-expressed (Sox10 alone 48.9+/−2.2-fold) [fold] |
| --- | --- | --- |
| B1 | 26.3 | – |
| B2 | – | 49.3 |
